From patent publication US8110187

How the values were obtained:
[1] = target: Cytotoxic Lymphocyte Maturation Factor (CLMF) 75 kDa heterodimer (human) (UniProt P29460); assay: 125I-CLMF binding to PHA-activated lymphoblasts, supernatant at 1/2 dilution; competitor: CLMF receptor on cells
[2] = target: CLMF receptor on PHA-activated peripheral blood lymphoblasts (human); assay: Scatchard plot analysis of equilibrium binding of 125I-CLMF to PHA-activated lymphoblasts
CLMF receptor on PHA-activated peripheral blood lymphoblasts (human), sequence (Q99665 24-862, chain 2 of 2, other chains not shown): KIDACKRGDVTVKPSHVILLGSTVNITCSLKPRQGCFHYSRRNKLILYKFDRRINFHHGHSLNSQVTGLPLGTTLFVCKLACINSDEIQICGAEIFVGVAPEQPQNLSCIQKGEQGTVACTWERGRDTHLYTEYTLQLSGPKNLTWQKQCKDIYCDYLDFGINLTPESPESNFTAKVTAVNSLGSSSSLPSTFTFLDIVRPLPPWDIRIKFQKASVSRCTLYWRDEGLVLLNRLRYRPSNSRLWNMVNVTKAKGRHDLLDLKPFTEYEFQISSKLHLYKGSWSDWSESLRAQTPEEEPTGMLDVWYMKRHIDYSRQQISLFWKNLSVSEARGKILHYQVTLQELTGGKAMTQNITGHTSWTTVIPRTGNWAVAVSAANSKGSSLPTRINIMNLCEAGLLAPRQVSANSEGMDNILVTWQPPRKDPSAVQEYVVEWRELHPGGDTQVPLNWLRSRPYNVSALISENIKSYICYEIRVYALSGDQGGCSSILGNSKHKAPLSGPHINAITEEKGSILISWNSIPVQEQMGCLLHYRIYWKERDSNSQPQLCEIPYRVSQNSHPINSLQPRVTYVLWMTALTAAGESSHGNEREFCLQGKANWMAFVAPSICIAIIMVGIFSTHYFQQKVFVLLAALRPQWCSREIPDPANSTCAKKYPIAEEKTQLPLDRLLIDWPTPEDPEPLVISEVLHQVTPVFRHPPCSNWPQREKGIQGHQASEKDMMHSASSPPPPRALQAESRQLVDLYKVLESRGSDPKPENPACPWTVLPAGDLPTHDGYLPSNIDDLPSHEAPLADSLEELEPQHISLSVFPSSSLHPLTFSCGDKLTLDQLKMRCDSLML

| Substance | % inhibition of 125I-CLMF binding to the lymphoblasts [1] [%] | Kd [2] [nM] |
| --- | --- | --- |
| Control monoclonal antibody | 10 |  |
| Cytotoxic Lymphocyte Maturation Factor (CLMF) 75 kDa heterodimer (from UniProt P29460 23-328; P29459 23-219) (ligand) |  | 0.2 |
